The text below walks through data of US5710022, “Nuclear mitotic phosphoprotein” (Board of Regents of the University of Texas System, dated 1998).

For experiment [1], the target named is T1, purified p56-RB (Homo sapiens (Human), UniProt P06400).
T1 sequence: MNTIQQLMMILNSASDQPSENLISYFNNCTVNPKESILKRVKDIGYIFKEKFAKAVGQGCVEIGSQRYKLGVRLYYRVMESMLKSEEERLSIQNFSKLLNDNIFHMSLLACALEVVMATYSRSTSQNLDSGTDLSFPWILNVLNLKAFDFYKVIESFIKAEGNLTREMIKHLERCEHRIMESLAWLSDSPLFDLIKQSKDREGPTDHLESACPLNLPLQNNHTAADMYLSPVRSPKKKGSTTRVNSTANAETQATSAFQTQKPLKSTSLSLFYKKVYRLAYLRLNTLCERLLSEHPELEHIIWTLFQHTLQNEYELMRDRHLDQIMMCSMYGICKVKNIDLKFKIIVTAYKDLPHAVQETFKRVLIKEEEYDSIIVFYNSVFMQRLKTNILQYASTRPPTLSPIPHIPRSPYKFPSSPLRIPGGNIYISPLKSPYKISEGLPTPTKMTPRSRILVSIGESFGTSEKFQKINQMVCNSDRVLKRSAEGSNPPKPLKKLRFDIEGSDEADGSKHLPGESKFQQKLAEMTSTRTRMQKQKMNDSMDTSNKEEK
Put plainly: blot of purified MBP fusion proteins probed with the Rb-sandwich.

The target in experiment [2] is T1, purified p56-RB. Description: blot of purified MBP fusion proteins probed with the Rb-sandwich; the faint band in lane 3 is called an artifact in paragraph 24. The source says:
(§1) (A) Two identical blots containing seven purified MBP fusion proteins were probed with either the "Rb-sandwich" (lanes 1–7) or with an antibody to MBP (New England Biolabs) (lanes 8–14). […] (B) Similarly, two identical blots of the purified GST-fusion proteins were probed with either the "Rb-sandwich" (lanes 15–17) or with an antibody to GST (lanes 18–20). […] (C) A diagram of the different constructs used in this experiment. […] (D) Sequence comparison of the Rb-binding region of mitosin with the Rb-binding domain of E2F-1 (in bold letters) and neighboring residues (SEQ. ID NOS: 3 and 4). […] Dashed lines indicate conserved residues and solid lines indicate identical residues.

The target in experiment [3] is T1, purified p56-RB. Put plainly: blot of purified GST fusion proteins probed with the Rb-sandwich (figure legend).
Excerpt: as §1

B1: MBP-T antigen (other)
chain: MDKVLNREESLQLMDLLGLERSAWGNIPLMRKAYLKKCKEFHPDKGGDEEKMKKMNTLYKKMEDGVKYAHQPDFGGFWDATEIPTYGTDEWEQWWNAFNEENLFCSEEMPSSDDEATADSQHSTPPKKKRKVEDPKDFPSELLSFLSHAVFSNRTLACFAIYTTKEKAALLYKKIMEKYSVTFISRHNSYNHNILFFLTPHRHRVSAINNYAQKLCTFSFLICKGVNKEYLMYSALTRDPFSVIEESLPGGLKEHDFNPEEAEETKQVSWKLVTEYAMETKCDDVLLLLGMYLEFQYSFE
Regarding B1, in the experiment with purified p56-RB [1], the binding result is “binds”.

B2: MBP-10 (other)
chain: LLQGLDEAKNNYIVLQSSVNGLIQEVEDGKQKLEKKDEEISRLKNQIQDQEQLVSKLSQVEGEHQLWKEQNLELRNLTVELEQKIQVLQSKNASLQDTLEVLQSSYKNLENELELTKMDKMSFVEKVNKMTAKETELQREMHEMAQKTAELQEELSGEKNRLAGELQLLLEEIKSSKDQLKELTLENSELKKSLDCMHKDQVEKEGKVREEIAEYQLRLHEAEKKHQALLLDTNKQYEVEIQTYREKLTSKEECLSSQKLEIDLLKSSKEELNNSLKATTQILEELKKTKMDNLKYVNQLKKENERAQGKMKLLIKSCKQLEEEKEILQKELSQLQAAQEKQKTGTVMDTKVDELTTEIKELKETLEEKTKEADEYLDKYCSLLISHEKLEKAKEMLETQVAHLCSQQSKQDSRGSPLLGPVVPGPSPIPSVTEKRLSSGQNKASGKRQRSSGIWENGGGPTPATPESFSKKSKKAVMSGIHPAEDTEGTEFEPEGLPEVVKKGFADIPTGKTSPYILRRTTMATRTSPRLAAQKLALSPLSLGKENLAESSKPTAGGSRSQKVKVAQRSPVDSGTILREPTTKSVPVNNLPERSPTDSPREGLRVKRGRLVPSPKAGLESKGSENCKVQ
For B2, the binding result with purified p56-RB [1] was “binds”.

B3: MBP-10/H (other)
chain: LLQGLDEAKNNYIVLQSSVNGLIQEVEDGKQKLEKKDEEISRLKNQIQDQEQLVSKLSQVEGEHQLWKEQNLELRNLTVELEQKIQVLQSKNASLQDTLEVLQSSYKNLENELELTKMDKMSFVEKVNKMTAKETELQREMHEMAQKTAELQEELSGEKNRLAGELQLLLEEIKSSKDQLKELTLENSELKKSLDCMHKDQVEKEGKVREEIAEYQLRLHEAEKKHQALLLDTNKQYEVEIQTYREKLTSKEECLSSQKLEIDLLKSSKEELNNSLKATTQILEELKKTKMDNLKYVNQLKKENERAQGKMKLLIKSCKQLEEEKEILQKELSQLQAAQEKQKTGTVMDTKVDELTTEIKELKETLEEKTKEADEYLDKYCSLLISHEKLEKAKEMLETQVAHLCSQQSKQDSRGSPLLGPVVPGPSPIPSVTEKRLSSGQNKA
On to B3, for which, in the experiment with purified p56-RB [2], the binding result is reported as “no binding”.

B4: GST-1045 (other)
chain: MSGIHPAEDTEGTEFEPEGLPEVVKKGFADIPTGKTSPYILRRTTM
For the molecule B4, the binding result in the experiment with purified p56-RB [3] is listed as “binds”.

B5: MBP-10/NI (other)
chain: LGPVVPGPSPIPSVTEKRLSSGQNKASGKRQRSSGIWENGGGPTPATPESFSKKSKKAVMSGIHPAEDTEGTEFEPEGLPEVVKKGFADIPTGKTSPYILRRTTMATRTSPRLAAQKLALSPLSLGKENLAESSKPTAGGSRSQKVKVAQRSPVDSGTILREPTTKSVPVNNLPERSPTDSPREGLRVKRGRLVPSPKAGLESKGSENCKVQ
As for B5, in the experiment with purified p56-RB [1], the binding result is reported as “binds”.

B6: MBP-10/NB (other)
chain: LLQGLDEAKNNYIVLQSSVNGLIQEVEDGKQKLEKKDEEISRLKNQIQDQEQLVSKLSQVEGEHQLWKEQNLELRNLTVELEQKIQVLQSKNASLQDTLEVLQSSYKNLENELELTKMDKMSFVEKVNKMTAKETELQREMHEMAQKTAELQEELSGEKNRLAGELQLLLEEIKSSKDQLKELTLENSE
On to B6, for which the binding result in the experiment with purified p56-RB [1] is reported as “no binding”.

B7: MBP-10/KN (other)
chain: LAGELQLLLEEIKSSKDQLKELTLENSELKKSLDCMHKDQVEKEGKVREEIAEYQLRLHEAEKKHQALLLDTNKQYEVEIQTYREKLTSKEECLSSQKLEIDLLKSSKEELNNSLKATTQILEELKKTKMDNLKYVNQLKKENERAQGKMKLLIKSCKQLEEEKEILQKELSQLQAAQEKQKTGTVMDTKVDELTTEIKELKETLEEKTKEADEYLDKYCSLLISHEKLEKAKEMLETQVAHLCSQQSKQDSRGSPLLGPVVPGPSPIPSVTEKRLSSGQNKASGKRQRSSGIWENGGGPTPATPESFSKKSKKAVMSGIHPAEDTEGTEFEPEGLPEVVKKGFADIPTGKTSPYILRRTTMATRTSPRLAAQKLALSPLSLGKENLAESSKPTAGGSRSQKVKVAQRSPVDSGTILREPTTKSVPVNNLPERSPTDSPREGLRVKRGRLVPSPKAGLESKGSENCKVQ
Regarding B7, in the experiment with purified p56-RB [1], the binding result is listed as “binds”.
